Reference: patent US20210155961

Molecular target: T1, LvaB (untagged)
T1 chain: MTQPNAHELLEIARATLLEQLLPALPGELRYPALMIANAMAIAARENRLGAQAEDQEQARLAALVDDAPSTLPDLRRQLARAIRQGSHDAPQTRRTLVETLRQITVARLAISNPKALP

B1: MBP-LvaA (LvaA N-terminally tagged with maltose binding protein) (protein)
chain: MSSSPTISPASDTFAAMTDDHRLAEFIREQASATRVVIQARKRLSGGAIQENWLLDLLIEGGPWAGVRRWVLRSDALSALPASLDREQEFAVLQVVYQAGVKVPRPLWLCRDVRVHGRVFFLMEYVPGSAAGRALSTGAGPQGRAQLATQLGANLARLHQVRPPCATLCFLSVPDSSPALATIDAYRRYLDTLADAYPVLEWGLRWCELHAPRSSTLCLLHRDYRTGNYLASEEGLEAVLDWEFTGWGDPCEDLGWFTARCWRFTRPDLEAGGIGQLEDFLRGYHEVSSLCIERSRLHYWQVMATLRWAVIALQQGQRHLSGEEPSLELALTARLLPELELDILHMTGAEAP
abundance of CoA species by LC/MS in in vitro enzyme reactions (4HV-CoA to 4PV-CoA): A decrease of 4HV-CoA and an increase of the predicted 4PV-CoA intermediate was seen only when all four of the enzymes were present
